B1: HmutscFvCD20Δ24+4A (other)
chain: MAAAANREHLMIDRPYVLLAVLFVMFLSLIGLLAIAGIRLHRAAIYTAEIHKSLSTNLDVTNSIEHQVKDVLTPLFKIIGDEVGLRTPQRFTDLVKFISDKIKFLNPDREYDFRDLTWCINPPERIKLDYDQYCADVAAEELMNALVNSTLLETRTTNQFLAVSKGNCSGPTTIRGQFSNMSLSLLDLYLGRGYNVSSIVTMTSQGMYGGTYLVEKPNLSSKRSELSQLSMYRVFEVGVIRNPGLGAPVFHMTNYLEQPVSNDLSNCMVALGELKLAALCHGEDSITIPYQGSGKGVSFQLVKLGVWKSPTDMQSWVPLSTDDPVIDRLYLSSHRGVIADNQAKWAVPTTRTDDKLRMETCFQQACKGKIQALCENPEWAPLKDNRIPSYGVLSVDLSLTVELKIKIASGFGPLITHGSGMDLYKSNHNNVYWLTIPPMKNLALGVINTLEWIPRFKVSPALFTVPIKEAGGDCHAPTYLPAEVDGDVKLSSNLVILPGQDLQYVLATYDTSAVEHAVVYYVYSPSRLSSYFYPFRLPIKGVPIELQVECFTWDQKLWCRHFCVLADSESGGHITHSGMVGMGVSCTVTREDGTNAAQPAIEGRMAQVQLVQSGAELVKPGASVKMSCKASGYTFTSYNMHWVKQTPGQGLEWIGAIYPGNGDTSYNQKFKGKATLTADKSSSTAYMQLSSLTSEDSAVYYCARAQLRPNYWYFDVWGAGTTVTVSKISGGGGSGGGGSGGGGSGGSSDIVLSQSPAILSASPGEKVTMTCRASSSVSYMHWYQQKPGSSPKPWIYATSNLASGVPARFSGSGSGTSYSLTISRVEAEDAATYYCQQWISNPPTFGAGTKLELKAAARGSHHHHHH
B2: HmutscFvCD20Δ18 (other)
chain: MGSRIVINREHLMIDRPYVLLAVLFVMFLSLIGLLAIAGIRLHRAAIYTAEIHKSLSTNLDVTNSIEHQVKDVLTPLFKIIGDEVGLRTPQRFTDLVKFISDKIKFLNPDREYDFRDLTWCINPPERIKLDYDQYCADVAAEELMNALVNSTLLETRTTNQFLAVSKGNCSGPTTIRGQFSNMSLSLLDLYLGRGYNVSSIVTMTSQGMYGGTYLVEKPNLSSKRSELSQLSMYRVFEVGVIRNPGLGAPVFHMTNYLEQPVSNDLSNCMVALGELKLAALCHGEDSITIPYQGSGKGVSFQLVKLGVWKSPTDMQSWVPLSTDDPVIDRLYLSSHRGVIADNQAKWAVPTTRTDDKLRMETCFQQACKGKIQALCENPEWAPLKDNRIPSYGVLSVDLSLTVELKIKIASGFGPLITHGSGMDLYKSNHNNVYWLTIPPMKNLALGVINTLEWIPRFKVSPALFTVPIKEAGGDCHAPTYLPAEVDGDVKLSSNLVILPGQDLQYVLATYDTSAVEHAVVYYVYSPSRLSSYFYPFRLPIKGVPIELQVECFTWDQKLWCRHFCVLADSESGGHITHSGMVGMGVSCTVTREDGTNAAQPAIEGRMAQVQLVQSGAELVKPGASVKMSCKASGYTFTSYNMHWVKQTPGQGLEWIGAIYPGNGDTSYNQKFKGKATLTADKSSSTAYMQLSSLTSEDSAVYYCARAQLRPNYWYFDVWGAGTTVTVSKISGGGGSGGGGSGGGGSGGSSDIVLSQSPAILSASPGEKVTMTCRASSSVSYMHWYQQKPGSSPKPWIYATSNLASGVPARFSGSGSGTSYSLTISRVEAEDAATYYCQQWISNPPTFGAGTKLELKAAARGSHHHHHH

Assays:
CD46 = CD46 (human, UniProt P15529); experiment: cell-based or functional assay
human CD20 = human CD20 (human, UniProt P11836); experiment: cell-based or functional assay

| Binder | titer [t.u./ml] of HIV-1 vector particles on HT1080 cells, concentrated supernatant (CD46) [t.u./ml] | titer [t.u./ml] of HIV-1 vector particles on HT1080-CD20 cells, concentrated supernatant (human CD20) [t.u./ml] |
| --- | --- | --- |
| B1 | 200 | 8600 |
| B2 | 980 | 200000 |

Reference: patent publication US9862971B2 (BUNDESREPUBLIK DEUTSCHLAND, LETZTVERTRETEN DURCH DEN …, dated 2018)
